Experimental data reported in article PMC4431682, “Est10: A Novel Alkaline Esterase Isolated from Bovine Rumen Belonging to the New Family XV of Lipolytic Enzymes” (PLoS ONE, 2015).

Legend:
Experiment in all cases: purified protein
Assay type in all cases: biochemical, uncultured bacterium
Details in all cases: hydrolysis, conditions of the kinetic assay not stated separately (general pNP assay: 100 mM sodium phosphate pH 8.0, Triton, 40 °C)
[1] = test system: T1, CCCC(=O)Oc1ccc([N+](=O)[O-])cc1
T1 construct: whole 367-residue ORF with its putative signal peptide, N-terminal 6xHis (pET14b), E. coli BL21(DE3) pLysS, Ni-NTA; forward primer codes MIMKKQNFF; GHSQG with Ser189

[2] = test system: T2, CC(=O)Oc1ccc([N+](=O)[O-])cc1
T2 construct: whole 367-residue ORF with its putative signal peptide, N-terminal 6xHis (pET14b), E. coli BL21(DE3) pLysS, Ni-NTA; forward primer codes MIMKKQNFF; GHSQG with Ser189

[3] = test system: T3, CCCCCCCCCC(=O)Oc1ccc([N+](=O)[O-])cc1
T3 construct: whole 367-residue ORF with its putative signal peptide, N-terminal 6xHis (pET14b), E. coli BL21(DE3) pLysS, Ni-NTA; forward primer codes MIMKKQNFF; GHSQG with Ser189

Question: Which results are given for Est10 (uncultured bacterium)?
Answer: Km [1]: 0.16 (0.02) mM; kcat [1]: 3.1 s⁻¹; kcat/Km [1]: 19000 M⁻¹ s⁻¹; Km [2]: 0.3 (0.1) mM; kcat [2]: 0.22 s⁻¹; kcat/Km [2]: 800 M⁻¹ s⁻¹; Km [3]: 0.35 (0.06) mM; kcat [3]: 0.72 s⁻¹; kcat/Km [3]: 2100 M⁻¹ s⁻¹
